Data on ten molecules can be found in US20170335404A1 (REGENTS OF THE UNIVERSITY OF MINNESOTA, published 2017).

Experiment [1] has as its target recombinant human Nectin-1 extracellular domain (human) (UniProt Q15223). Nature of the experiment: cell-based or functional assay.
In experiment [2] the target is full-length Nectin-4 overexpressed on NIH:OVCAR5-N4-over cells, Q96NY8. Nature of the experiment: cell-based or functional assay.
Experiment [3] concerns the target T1, recombinant human Nectin-1 extracellular domain (human, UniProt Q15223 31-355).
T1 sequence (looked up): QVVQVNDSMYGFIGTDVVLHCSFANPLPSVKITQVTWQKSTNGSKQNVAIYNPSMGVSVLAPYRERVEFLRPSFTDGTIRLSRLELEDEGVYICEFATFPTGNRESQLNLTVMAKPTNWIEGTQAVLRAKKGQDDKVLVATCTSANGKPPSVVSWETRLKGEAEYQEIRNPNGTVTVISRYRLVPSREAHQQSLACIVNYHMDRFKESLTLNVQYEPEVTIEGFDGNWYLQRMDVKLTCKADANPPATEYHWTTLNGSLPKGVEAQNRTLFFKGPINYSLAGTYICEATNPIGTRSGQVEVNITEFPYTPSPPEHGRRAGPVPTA
As to the kind of experiment: cell-based or functional assay.

For experiment [4], the target named is T2, Nectin-4 natively expressed on NIH:OVCAR5 parental cells (human, UniProt Q96NY8 32-510).
T2 construct: whole, on cells; The cells also express Nectin-1; also called NIH:OVCAR-5 cells
T2 sequence (looked up): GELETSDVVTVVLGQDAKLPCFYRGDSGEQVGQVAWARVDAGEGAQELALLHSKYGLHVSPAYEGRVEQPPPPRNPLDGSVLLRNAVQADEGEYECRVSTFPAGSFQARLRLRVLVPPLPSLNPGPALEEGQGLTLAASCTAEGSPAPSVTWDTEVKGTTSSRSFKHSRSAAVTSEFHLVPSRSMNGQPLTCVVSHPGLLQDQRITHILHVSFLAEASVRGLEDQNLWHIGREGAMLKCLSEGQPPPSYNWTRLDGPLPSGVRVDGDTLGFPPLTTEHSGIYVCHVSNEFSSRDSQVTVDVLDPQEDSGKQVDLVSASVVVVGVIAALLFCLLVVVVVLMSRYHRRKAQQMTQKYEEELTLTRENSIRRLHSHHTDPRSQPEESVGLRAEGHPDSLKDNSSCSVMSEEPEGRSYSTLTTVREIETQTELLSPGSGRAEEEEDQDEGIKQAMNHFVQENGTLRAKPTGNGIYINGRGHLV
Nature of the experiment: cell adhesion assay, NIH:OVCAR5 parental cells on coated microtiter plates. The method, then:
Black, clear-bottom 96-well microtiter plates (Corning, Imported Costar, Corning, N.Y.) were coated with recombinant human Nectin-1 extracellular domain (R&D Systems), recombinant human Nectin-4 extracellular domain (R&D Systems), mouse laminin (Invitrogen™), or bovine serum albumin (BSA; Prohumin Diagnostic Grade, MilliPore) diluted in PBS. Covered plates were incubated overnight at 37° C. in a humidified incubator. After washing with PBS plus Ca²⁺/Mg²⁺ containing 2 mg/ml ovalbumin (Sigma-Aldrich), the plates were blocked for 1 h at 37° C. with 1% BSA in PBS without Ca²⁺/Mg²⁺. Confluent monolayers of NIH:OVCAR5 cells or NIH:OVCAR5-N4-over cells were detached with Accutase, and then filtered through a 40 μm cell strainer (BD Biosciences, San Jose, Calif.) to remove cell aggregates. The single cells were stained with CellTracker Green CMFDA (5-chlorornethylfluorescein diacetate; Invitrogen™) according to the manufacturer's protocol. After washing the plate, 30,000 cells were added to each well in 50 μl of RPMI 1640 media containing 2 mg/ml ovalbumin and allowed to adhere for 15-60 min at 37° C. Plates were vigorously washed four times and read in a BioTek Synergy fluorescent microplate reader (BioTek, Winooski, Va.). Experiments were conducted in triplicate. […]

In the case of “mouse monoclonal antibody against human Nectin-1, R&D Systems MAB2880, clone #610835”, the inhibition of cell adhesion to Nectin-1 in experiment [1] was determined as 60%.

With H-VNITEFPYTPSPPEHGRRA-NH2 [N1-P26], the inhibition of adhesion of NIH:OVCAR5-N4-over cells to Nectin-1 in experiment [2] is > 50%.

On to H-NWYLQRMDVKLTCK-NH2 [N1-P20], for which, in experiment [2], the inhibition of adhesion of NIH:OVCAR5-N4-over cells to Nectin-1 was > 50% and the inhibition of cell adhesion was determined as 100%.

With H-QRITHILHVSFLAE-NH2 [N4-P18], the “inhibition of adhesion of NIH:OVCAR5-N4-over cells to Nectin-1” value in experiment [3] is ≥ 50 >=50 of the printed range 50-100 %.

Consider H-QARLRLRVLVPPLP-NH2 [N4-P10], for which the “inhibition of adhesion of NIH:OVCAR5-N4-over cells to Nectin-1” value in experiment [3] was ≥ 50 >=50 of the printed range 50-100 %.

For H-WTRLDGPLPSGVRV-NH2 [N4-P22], the “inhibition of adhesion of NIH:OVCAR5-N4-over cells to Nectin-1” value in experiment [3] was ≥ 50 >=50 of the printed range 50-100 %.

On to H-HSQVVQVNDSMYGF-NH2 [N1-P1], for which, in experiment [2], the inhibition of adhesion of NIH:OVCAR5-N4-over cells to Nectin-1 is > 50%.

On to H-ACIVNYHMDRFKES-NH2 [N1-P17], for which, in experiment [2], the inhibition of adhesion of NIH:OVCAR5-N4-over cells to Nectin-1 is > 50%.

Regarding H-TGNGIYINGRGHLV-NH2 [N4-P29], the “inhibition of adhesion of NIH:OVCAR5-N4-over cells to Nectin-1” value in experiment [3] was ≥ 50 >=50 of the printed range 50-100 %.

B1: recombinant human Nectin-4 extracellular domain (receptor, UniProt Q96NY8 32-349, looked up)
chain: GELETSDVVTVVLGQDAKLPCFYRGDSGEQVGQVAWARVDAGEGAQELALLHSKYGLHVSPAYEGRVEQPPPPRNPLDGSVLLRNAVQADEGEYECRVSTFPAGSFQARLRLRVLVPPLPSLNPGPALEEGQGLTLAASCTAEGSPAPSVTWDTEVKGTTSSRSFKHSRSAAVTSEFHLVPSRSMNGQPLTCVVSHPGLLQDQRITHILHVSFLAEASVRGLEDQNLWHIGREGAMLKCLSEGQPPPSYNWTRLDGPLPSGVRVDGDTLGFPPLTTEHSGIYVCHVSNEFSSRDSQVTVDVLDPQEDSGKQVDLVSAS
notes: extracellular domain; Bought reagent, coated on microtiter plates; also called recombinant Nectin-4
Turning to B1, the binding result in experiment [4] is reported as “no binding (tested: 1 µg/well, up to 1 h)”.
